Assay results reported in PMC8916587, “Endoglin Wild Type and Variants Associated With Hereditary Hemorrhagic Telangiectasia Type 1 Undergo Distinct Cellular Degradation Pathways” (Frontiers in Molecular Biosciences, 2022).
Where a chain is given by its changes, count along the chain named. In names and notes the source's numbering stands.

B1: HA-tagged WT Endoglin (receptor, UniProt P17813 26-658, looked up)
chain: ETVHCDLQPVGPERGEVTYTTSQVSKGCVAQAPNAILEVHVLFLEFPTGPSQLELTLQASKQNGTWPREVLLVLSVNSSVFLHLQALGIPLHLAYNSSLVTFQEPPGVNTTELPSFPKTQILEWAAERGPITSAAELNDPQSILLRLGQAQGSLSFCMLEASQDMGRTLEWRPRTPALVRGCHLEGVAGHKEAHILRVLPGHSAGPRTVTVKVELSCAPGDLDAVLILQGPPYVSWLIDANHNMQIWTTGEYSFKIFPEKNIRGFKLPDTPQGLLGEARMLNASIVASFVELPLASIVSLHASSCGGRLQTSPAPIQTTPPKDTCSPELLMSLIQTKCADDAMTLVLKKELVAHLKCTITGLTFWDPSCEAEDRGDKFVLRSAYSSCGMQVSASMISNEAVVNILSSSSPQRKKVHCLNMDSLSFQLGLYLSPHFLQASNTIEPGQQSFVQVRVSPSVSEFLLQLDSCHLDLGPEGGTVELIQGRAAKGNCVSLLSPSPEGDPRFSFLLHFYTVPIPKTGTLSCTVALRPKTGSQDQEVHRTVFMRLNIISPDLSGCTSKGLVLPAVLGITFGAFLIGALLTAALWYIYSHTRSPSKREPVVAVAAPASSESSSTNHSIGSTQSTPCSTSSMA
notes: Endoglin (CD105), wild type, encoded by ENG; Seen as a dimer on a non-reducing gel; also called Endoglin WT; ENG-WT; source: HEK293, stably transfected (pcDNA3.0), in lysate
B2: HA-tagged Endoglin mutant variant V105D (receptor, UniProt P17813 26-658, looked up)
chain: B1 chain with V80D
notes: Endoglin (CD105) with the HHT1 disease-causing missense variant V105D, made by site directed mutagenesis; Retained in the ER; also called ENG-V105D; p; V105D; source: HEK293, stably transfected (pcDNA3.0), in lysate
B3: HA-tagged Endoglin mutant variant P165L (receptor, UniProt P17813 26-658, looked up)
chain: B1 chain with P140L
notes: Endoglin (CD105) with the HHT1 disease-causing missense variant P165L, made by site directed mutagenesis; Retained in the ER; also called ENG-P165L; p; P165L; source: HEK293, stably transfected (pcDNA3.0), in lysate

Target: the molecule itself
Assay: non-reducing SDS-PAGE with Western blot; lysates of stably transfected HEK293 cells denatured in sample buffer with or without a reducing agent; blotted with anti-HA

Protein	stoichiometry N
B1	2
B2	2
B3	2
